This passage reports percent of the 3′-end processing factors associated results from patent US20100136710A1.

The experiment deals with 3′-end processing factors. Kind of experiment: immunoprecipitation under standard salt conditions.

With human tRNA splicing endonuclease, the percent of the 3′-end processing factors associated is less than 1%.
